According to the Human Domainome abundance scans (Beltran et al. 2025):
± gives the uncertainty stated by the source.

B1: Intersectin-1, residues 1156 to 1213; numbered along this chain, Q15811 (parent)
chain: AVCQVIGMYDYTAQNDDELAFNKGQIINVLNKEDPDWWKGEVNGQVGLFPSNYVKLTT

Variants of: B1
Assay: abundance fitness (aPCA) (normalised: wild type 0, dead -1); higher = more abundant; growth selection in yeast, the domain comes from the species named
Conditions: Homo sapiens
AVCQVIGMYDYKAQNDDELAFNKGQIINVLNKEDPDWWKGEVNGQVGLFPSNYVKLTT [T12K] gave an abundance fitness of -0.178 ± 0.18. With AVCQVIGMYDYRAQNDDELAFNKGQIINVLNKEDPDWWKGEVNGQVGLFPSNYVKLTT [T12R] the abundance fitness was -0.072 ± 0.083. AVCQVIGMYDYGAQNDDELAFNKGQIINVLNKEDPDWWKGEVNGQVGLFPSNYVKLTT [T12G] showed an abundance fitness of -0.424 ± 0.086. In the case of AVCQVIGMYDYVAQNDDELAFNKGQIINVLNKEDPDWWKGEVNGQVGLFPSNYVKLTT [T12V], the abundance fitness is reported as -0.165 ± 0.094. AVCQVIGMYDYYAQNDDELAFNKGQIINVLNKEDPDWWKGEVNGQVGLFPSNYVKLTT [T12Y] showed an abundance fitness of -0.289 ± 0.21. Variant AVCQVIGMYDYFAQNDDELAFNKGQIINVLNKEDPDWWKGEVNGQVGLFPSNYVKLTT [T12F] has an abundance fitness of -0.39 ± 0.19. Work on AVCQVIGMYDYNAQNDDELAFNKGQIINVLNKEDPDWWKGEVNGQVGLFPSNYVKLTT [T12N] yielded an abundance fitness of 0.01 ± 0.16. AVCQVIGMYDYHAQNDDELAFNKGQIINVLNKEDPDWWKGEVNGQVGLFPSNYVKLTT [T12H] gave an abundance fitness of -0.108 ± 0.19. AVCQVIGMYDYIAQNDDELAFNKGQIINVLNKEDPDWWKGEVNGQVGLFPSNYVKLTT [T12I] gave an abundance fitness of -0.608 ± 0.17. Variant AVCQVIGMYDYLAQNDDELAFNKGQIINVLNKEDPDWWKGEVNGQVGLFPSNYVKLTT [T12L] has an abundance fitness of -0.369 ± 0.095. Variant AVCQVIGMYDYMAQNDDELAFNKGQIINVLNKEDPDWWKGEVNGQVGLFPSNYVKLTT [T12M] has an abundance fitness of -0.168 ± 0.14. For AVCQVIGMYDYQAQNDDELAFNKGQIINVLNKEDPDWWKGEVNGQVGLFPSNYVKLTT [T12Q], the abundance fitness was -0.345 ± 0.18. With AVCQVIGMYDYWAQNDDELAFNKGQIINVLNKEDPDWWKGEVNGQVGLFPSNYVKLTT [T12W] the abundance fitness was -0.629 ± 0.16. AVCQVIGMYDYTAQNDIELAFNKGQIINVLNKEDPDWWKGEVNGQVGLFPSNYVKLTT [D17I] gave an abundance fitness of -0.419 ± 0.23. Work on AVCQVIGMYDYTAQNDCELAFNKGQIINVLNKEDPDWWKGEVNGQVGLFPSNYVKLTT [D17C] yielded an abundance fitness of -0.344 ± 0.17. Variant AVCQVIGMYDYTAQNDKELAFNKGQIINVLNKEDPDWWKGEVNGQVGLFPSNYVKLTT [D17K] has an abundance fitness of -0.099 ± 0.16. Work on AVCQVIGMYDYTAQNDQELAFNKGQIINVLNKEDPDWWKGEVNGQVGLFPSNYVKLTT [D17Q] yielded an abundance fitness of -0.082 ± 0.14. In the case of AVCQVIGMYDYTAQNDEELAFNKGQIINVLNKEDPDWWKGEVNGQVGLFPSNYVKLTT [D17E], the abundance fitness is reported as -0.03 ± 0.12. Variant AVCQVIGMYDYTAQNDPELAFNKGQIINVLNKEDPDWWKGEVNGQVGLFPSNYVKLTT [D17P] has an abundance fitness of -0.592 ± 0.19. AVCQVIGMYDYTAQNDLELAFNKGQIINVLNKEDPDWWKGEVNGQVGLFPSNYVKLTT [D17L] showed an abundance fitness of -0.125 ± 0.099. Work on AVCQVIGMYDYTAQNDMELAFNKGQIINVLNKEDPDWWKGEVNGQVGLFPSNYVKLTT [D17M] yielded an abundance fitness of -0.048 ± 0.15. In the case of AVCQVIGMYDYTAQNDGELAFNKGQIINVLNKEDPDWWKGEVNGQVGLFPSNYVKLTT [D17G], the abundance fitness is reported as 0.101 ± 0.072. With AVCQVIGMYDYTAQNDSELAFNKGQIINVLNKEDPDWWKGEVNGQVGLFPSNYVKLTT [D17S] the abundance fitness was 0.126 ± 0.091. For AVCQVIGMYDYTAQNDRELAFNKGQIINVLNKEDPDWWKGEVNGQVGLFPSNYVKLTT [D17R], the abundance fitness was 0.014 ± 0.08. AVCQVIGMYDYTAQNDHELAFNKGQIINVLNKEDPDWWKGEVNGQVGLFPSNYVKLTT [D17H] gave an abundance fitness of -0.298 ± 0.13. AVCQVIGMYDYTAQNDFELAFNKGQIINVLNKEDPDWWKGEVNGQVGLFPSNYVKLTT [D17F] showed an abundance fitness of -0.359 ± 0.19. With AVCQVIGMYDYTAQNDNELAFNKGQIINVLNKEDPDWWKGEVNGQVGLFPSNYVKLTT [D17N] the abundance fitness was 0.147 ± 0.2. For AVCQVIGMYDYTLQNDDELAFNKGQIINVLNKEDPDWWKGEVNGQVGLFPSNYVKLTT [A13L], the abundance fitness was -0.903 ± 0.13. AVCQVIGMYDYTMQNDDELAFNKGQIINVLNKEDPDWWKGEVNGQVGLFPSNYVKLTT [A13M] gave an abundance fitness of -0.853 ± 0.18. AVCQVIGMYDYTFQNDDELAFNKGQIINVLNKEDPDWWKGEVNGQVGLFPSNYVKLTT [A13F] showed an abundance fitness of -0.592 ± 0.34. AVCQVIGMYDYTSQNDDELAFNKGQIINVLNKEDPDWWKGEVNGQVGLFPSNYVKLTT [A13S] gave an abundance fitness of -0.455 ± 0.1. In the case of AVCQVIGMYDYTVQNDDELAFNKGQIINVLNKEDPDWWKGEVNGQVGLFPSNYVKLTT [A13V], the abundance fitness is reported as -0.832 ± 0.11. AVCQVIGMYDYTWQNDDELAFNKGQIINVLNKEDPDWWKGEVNGQVGLFPSNYVKLTT [A13W] showed an abundance fitness of -0.746 ± 0.14. With AVCQVIGMYDYTDQNDDELAFNKGQIINVLNKEDPDWWKGEVNGQVGLFPSNYVKLTT [A13D] the abundance fitness was -0.944 ± 0.24. AVCQVIGMYDYTEQNDDELAFNKGQIINVLNKEDPDWWKGEVNGQVGLFPSNYVKLTT [A13E] gave an abundance fitness of -0.822 ± 0.16. AVCQVIGMYDYTIQNDDELAFNKGQIINVLNKEDPDWWKGEVNGQVGLFPSNYVKLTT [A13I] showed an abundance fitness of -0.735 ± 0.26. In the case of AVCQVIGMYDYTTQNDDELAFNKGQIINVLNKEDPDWWKGEVNGQVGLFPSNYVKLTT [A13T], the abundance fitness is reported as -0.336 ± 0.11. For AVCQVIGMYDYTPQNDDELAFNKGQIINVLNKEDPDWWKGEVNGQVGLFPSNYVKLTT [A13P], the abundance fitness was -0.059 ± 0.1. Work on AVCQVIGMYDYTYQNDDELAFNKGQIINVLNKEDPDWWKGEVNGQVGLFPSNYVKLTT [A13Y] yielded an abundance fitness of -0.574 ± 0.2. For AVCQVIGMYDYTRQNDDELAFNKGQIINVLNKEDPDWWKGEVNGQVGLFPSNYVKLTT [A13R], the abundance fitness was -0.451 ± 0.089. With AVCQVIGMYDYTNQNDDELAFNKGQIINVLNKEDPDWWKGEVNGQVGLFPSNYVKLTT [A13N] the abundance fitness was -0.839 ± 0.26. For AVCQVIGMYDYTQQNDDELAFNKGQIINVLNKEDPDWWKGEVNGQVGLFPSNYVKLTT [A13Q], the abundance fitness was -0.676 ± 0.14. Variant AVCQVIGMYDYTCQNDDELAFNKGQIINVLNKEDPDWWKGEVNGQVGLFPSNYVKLTT [A13C] has an abundance fitness of -0.76 ± 0.21. Variant AVCQVIGMYDYTAQNLDELAFNKGQIINVLNKEDPDWWKGEVNGQVGLFPSNYVKLTT [D16L] has an abundance fitness of -0.3 ± 0.088. In the case of AVCQVIGMYDYTAQNQDELAFNKGQIINVLNKEDPDWWKGEVNGQVGLFPSNYVKLTT [D16Q], the abundance fitness is reported as 0.115 ± 0.13.
